Reference: paper PMC11909895

Legend:
[1] = biological target: beta-Nrxn1ΔC, C-terminal truncated mutant beta-Nrxn1 (-AS4); assay: co-IP; HA antibody (clone 3F10) and Protein-G Sepharose from cortex lysates of adult control and beta-Nrxn1ΔC mice (untreated, or DOX 14 days then 30 days re-expression); lysis buffer 20 mM Tris-HCl pH 7.5, 100 mM NaCl, 5 mM MgCl2, 5 mM CaCl2, 1% Triton X-100; blots for Nlgn1, Nlgn2, Nlgn3, LRRTM2
[2] = biological target: beta-Nrxn1ΔC, C-terminal truncated mutant beta-Nrxn1 (-AS4); assay: co-IP; HA antibody (clone 3F10) and Protein-G Sepharose from striatum lysates of adult control and beta-Nrxn1ΔC mice; lysis buffer 20 mM Tris-HCl pH 7.5, 100 mM NaCl, 5 mM MgCl2, 5 mM CaCl2, 1% Triton X-100; blots for Nlgn1, Nlgn2, Nlgn3, LRRTM2

Nlgn1 levels in the co-immunoprecipitates as percentage of total Nlgn1 in the initial lysates [1]: 5.01% | Nlgn1 levels in the co-immunoprecipitates as percentage of total Nlgn1 in the initial lysates [2]: 1.74%
Substance: Nlgn1 (neuroligin-1) (from UniProt Q99K10 46-843) (natural protein)
